Laboratory results: patent US20210213055A1 (Stanford University, published 2021)
Ends that are not written are not given here.

Columns and labels:
[1] = target: T1, Siglec-10 expressed on human donor-derived macrophages (human, UniProt Q96LC7 17-697); assay: cell-based or functional assay
T1 sequence (looked up): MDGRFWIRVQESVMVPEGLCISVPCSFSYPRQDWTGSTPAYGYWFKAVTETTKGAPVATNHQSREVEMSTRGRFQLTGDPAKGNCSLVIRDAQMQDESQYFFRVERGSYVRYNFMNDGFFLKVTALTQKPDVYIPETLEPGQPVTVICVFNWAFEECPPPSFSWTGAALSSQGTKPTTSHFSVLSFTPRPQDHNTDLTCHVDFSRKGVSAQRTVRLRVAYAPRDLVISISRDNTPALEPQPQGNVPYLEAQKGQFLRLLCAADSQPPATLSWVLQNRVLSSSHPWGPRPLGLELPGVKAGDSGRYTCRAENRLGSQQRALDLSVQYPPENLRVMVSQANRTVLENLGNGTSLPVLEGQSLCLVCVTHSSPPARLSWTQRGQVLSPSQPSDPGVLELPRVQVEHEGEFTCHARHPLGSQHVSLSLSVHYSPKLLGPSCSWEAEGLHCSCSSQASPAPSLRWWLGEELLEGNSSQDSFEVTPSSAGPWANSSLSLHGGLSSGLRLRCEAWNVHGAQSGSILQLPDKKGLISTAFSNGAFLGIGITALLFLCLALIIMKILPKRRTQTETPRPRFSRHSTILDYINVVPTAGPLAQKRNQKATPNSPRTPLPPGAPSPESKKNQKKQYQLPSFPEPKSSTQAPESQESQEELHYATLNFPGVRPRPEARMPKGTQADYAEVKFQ

recombinant Siglec5-Fc = target: T2, recombinant Siglec5-Fc (human, UniProt O15389 17-434, limits assumed); assay: flow cytometry, Fc-fusion on MCF-7 cells, anti-human Fc detection
T2 construct: Bought reagent; not shown: human Fc
T2 sequence (looked up): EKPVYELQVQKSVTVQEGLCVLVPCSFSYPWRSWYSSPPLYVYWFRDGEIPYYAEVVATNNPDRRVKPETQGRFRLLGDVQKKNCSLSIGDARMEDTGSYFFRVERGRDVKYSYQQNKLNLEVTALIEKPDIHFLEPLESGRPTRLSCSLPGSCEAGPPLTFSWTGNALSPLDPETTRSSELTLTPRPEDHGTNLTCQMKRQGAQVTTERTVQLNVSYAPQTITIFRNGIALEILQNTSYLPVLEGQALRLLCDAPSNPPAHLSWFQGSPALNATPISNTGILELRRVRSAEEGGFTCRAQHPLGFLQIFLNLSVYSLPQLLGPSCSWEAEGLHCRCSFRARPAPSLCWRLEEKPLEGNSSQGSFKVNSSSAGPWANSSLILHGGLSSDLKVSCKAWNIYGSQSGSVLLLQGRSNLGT
Method: Siglec10 has been reported to interact with the highly sialylated form of CD24. […] Indeed, we observed that CD24 deletion alone is insufficient to completely abrogate Siglec-10-Fc binding in the presence of surface sialylation (FIG. 15a,b).
Neuraminidase treatment and recombinant Siglec binding assay. MCF-7 cells were treated with either neuraminidase (from Vibrio cholerae, Roche) (1×10⁶ cells/100 U/mL) or neuraminidase that was heat inactivated for 15 min at 95° C. prior to incubation for 1 h at 37° C. in serum-free medium, after which reactions were quenched with serum prior to analysis. Recombinant Siglecs (10, 5, and 9) were purchased as human Fc-fusion proteins from R&D Systems. Binding of recombinant Siglecs versus human IgG1 control was assayed at a concentration of 1×10⁵ cells/1 mg/mL at 37° C. for 1 h, in the absence of EDTA. Cells were stained with a fluorescently-conjugated anti-human Fc antibody (Biolegend) to enable the measurement of recombinant Siglec binding by flow cytometry.

phagocytosis of CD24-expressing human tumors [1]: ≤ 13 fold
B1: CD24 expressed on human cancer cells (MCF-7 and other CD24+ cells) (ligand, UniProt P25063 27-59, looked up)
chain: SETTTGTSSNSSQSTSNSGLAPNPTNATTKAAG
modifications: also: heavily glycosylated, sialylated, GPI-anchored
notes: whole, on cells; also called Small Cell Lung Carcinoma Cluster 4 Antigen
binding result (recombinant Siglec5-Fc): no binding (tested: 1×10^5 cells/1 mg/mL)
